Source: paper PMC9198812, “Residues located in the primase domain of the bacteriophage T7 primase-helicase are essential for loading the hexameric complex onto DNA” (The Journal of Biological Chemistry, 2022)

B1: bacteriophage T7 primase-helicase gp4, wild type (63 kDa form) (enzyme, UniProt P03692 1-566, looked up)
chain: MDNSHDSDSVFLYHIPCDNCGSSDGNSLFSDGHTFCYVCEKWTAGNEDTKERASKRKPSGGKPMTYNVWNFGESNGRYSALTARGISKETCQKAGYWIAKVDGVMYQVADYRDQNGNIVSQKVRDKDKNFKTTGSHKSDALFGKHLWNGGKKIVVTEGEIDMLTVMELQDCKYPVVSLGHGASAAKKTCAANYEYFDQFEQIILMFDMDEAGRKAVEEAAQVLPAGKVRVAVLPCKDANECHLNGHDREIMEQVWNAGPWIPDGVVSALSLRERIREHLSSEESVGLLFSGCTGINDKTLGARGGEVIMVTSGSGMGKSTFVRQQALQWGTAMGKKVGLAMLEESVEETAEDLIGLHNRVRLRQSDSLKREIIENGKFDQWFDELFGNDTFHLYDSFAEAETDRLLAKLAYMRSGLGCDVIILDHISIVVSASGESDERKMIDNLMTKLKGFAKSTGVVLVVICHLKNPDKGKAHEEGRPVSITDLRGSGALRQLSDTIIALERNQQGDMPNLVLVRILKCRFTGDTGIAGYMEYNKETGWLEPSSYSGEEESHSESTDWSNDTDF
notes: bacteriophage T7 gene 4 primase-helicase, full-length 63 kDa form (residues 1-566); also called WT gp4; gp4A
B2: bacteriophage T7 primase-helicase gp4 Y111A (63 kDa form) (enzyme, UniProt P03692 1-566, looked up)
chain: MDNSHDSDSVFLYHIPCDNCGSSDGNSLFSDGHTFCYVCEKWTAGNEDTKERASKRKPSGGKPMTYNVWNFGESNGRYSALTARGISKETCQKAGYWIAKVDGVMYQVADARDQNGNIVSQKVRDKDKNFKTTGSHKSDALFGKHLWNGGKKIVVTEGEIDMLTVMELQDCKYPVVSLGHGASAAKKTCAANYEYFDQFEQIILMFDMDEAGRKAVEEAAQVLPAGKVRVAVLPCKDANECHLNGHDREIMEQVWNAGPWIPDGVVSALSLRERIREHLSSEESVGLLFSGCTGINDKTLGARGGEVIMVTSGSGMGKSTFVRQQALQWGTAMGKKVGLAMLEESVEETAEDLIGLHNRVRLRQSDSLKREIIENGKFDQWFDELFGNDTFHLYDSFAEAETDRLLAKLAYMRSGLGCDVIILDHISIVVSASGESDERKMIDNLMTKLKGFAKSTGVVLVVICHLKNPDKGKAHEEGRPVSITDLRGSGALRQLSDTIIALERNQQGDMPNLVLVRILKCRFTGDTGIAGYMEYNKETGWLEPSSYSGEEESHSESTDWSNDTDF
notes: bacteriophage T7 gene 4 primase-helicase, 63 kDa form (residues 1-566), with Y111A made by site-directed mutagenesis on pET28-gp4A; also called Y111A gp4; gp4-Y11A [sic]

Biological target: the molecule itself
Test: mass photometry; self-association, monomers to hexamer; 8.7 nM gp4 (hexamer concentration) in 40 mM Tris-HCl pH 7.5, 150 mM KCl, 10 mM MgCl2, 25 °C, 15 min, with 10 nM 50-nt ssDNA and 1 mM [β,γ-CH2] dTTP; Refeyn OneMP

Protein	stoichiometry N
B1	6
B2	6
